Measured values: patent publication US20040220384A1 (Takeda / Millennium, published 2004)
Non-standard residues stand in square brackets, D forms with d. No end group written: not given here. Trp(6-Br) = N[C@@H](Cc1c[nH]c2cc(Br)ccc12)C(=O)O; dTrp(6-Br) = N[C@H](Cc1c[nH]c2cc(Br)ccc12)C(=O)O

T1: human GPR7 (human, UniProt P48145 1-328)
T1 sequence: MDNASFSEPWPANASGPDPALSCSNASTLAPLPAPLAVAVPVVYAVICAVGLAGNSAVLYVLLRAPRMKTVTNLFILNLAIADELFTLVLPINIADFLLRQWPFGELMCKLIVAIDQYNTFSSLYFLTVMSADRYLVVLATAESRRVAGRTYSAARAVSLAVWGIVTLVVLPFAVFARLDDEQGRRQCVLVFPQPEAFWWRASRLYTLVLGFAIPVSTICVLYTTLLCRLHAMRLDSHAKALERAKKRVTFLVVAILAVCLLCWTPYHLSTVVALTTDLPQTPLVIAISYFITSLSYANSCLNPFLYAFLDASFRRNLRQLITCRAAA

T2: bovine GPR7 (bovine, UniProt Q8MJV3 1-331)
T2 sequence: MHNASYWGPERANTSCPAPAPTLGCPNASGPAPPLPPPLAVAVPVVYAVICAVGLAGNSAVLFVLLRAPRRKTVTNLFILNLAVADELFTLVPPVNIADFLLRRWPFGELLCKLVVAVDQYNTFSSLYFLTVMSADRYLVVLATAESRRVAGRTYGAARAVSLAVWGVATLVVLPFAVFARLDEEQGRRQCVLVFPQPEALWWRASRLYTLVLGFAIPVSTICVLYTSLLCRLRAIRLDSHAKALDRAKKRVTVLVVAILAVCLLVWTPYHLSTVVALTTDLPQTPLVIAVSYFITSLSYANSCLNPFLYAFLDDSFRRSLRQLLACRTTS

T3: bovine GPR8 (bovine, UniProt Q8MJV2 1-336)
T3 sequence: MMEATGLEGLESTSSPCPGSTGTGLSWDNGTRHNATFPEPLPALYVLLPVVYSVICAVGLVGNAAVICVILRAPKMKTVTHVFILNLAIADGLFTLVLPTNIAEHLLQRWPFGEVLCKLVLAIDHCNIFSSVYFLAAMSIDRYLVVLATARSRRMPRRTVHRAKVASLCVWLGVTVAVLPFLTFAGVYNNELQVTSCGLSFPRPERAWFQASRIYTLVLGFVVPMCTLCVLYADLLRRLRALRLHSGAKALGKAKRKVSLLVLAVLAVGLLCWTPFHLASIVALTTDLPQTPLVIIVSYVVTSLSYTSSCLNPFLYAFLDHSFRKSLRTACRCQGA

T4: rat GPR7 (rat TGR26) (rat, UniProt Q56UD9 1-329)
T4 sequence: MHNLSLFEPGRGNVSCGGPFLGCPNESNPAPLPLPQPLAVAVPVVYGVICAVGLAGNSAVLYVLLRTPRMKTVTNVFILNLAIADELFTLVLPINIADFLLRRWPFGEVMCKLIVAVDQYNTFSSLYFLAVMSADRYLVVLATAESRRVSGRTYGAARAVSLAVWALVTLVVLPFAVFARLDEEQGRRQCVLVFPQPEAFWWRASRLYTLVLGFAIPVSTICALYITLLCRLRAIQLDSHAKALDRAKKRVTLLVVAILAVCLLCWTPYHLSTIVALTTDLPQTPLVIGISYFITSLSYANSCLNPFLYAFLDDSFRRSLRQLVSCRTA

B1: Trp1-bovine GPR7L(29) (peptide)
peptide: WYKPTAGQGYYSVGRAAGLLSGFHRSPYA
notes: also called bovine GPR7 ligand B; non-brominated GPR7L

Tests used:
[1] = target: T1, human GPR7; assay: cell-based or functional assay
[2] = target: human GPR8 (human, UniProt P48146 1-333); assay: cell-based or functional assay
[3] = target: T2, bovine GPR7; assay: cell-based or functional assay
[4] = target: T3, bovine GPR8; assay: cell-based or functional assay
[5] = target: T4, rat GPR7 (rat TGR26); assay: cell-based or functional assay
[6] = target: T1, human GPR7; assay: binding inhibition of iodine-labeled hGPR7L-23 on human GPR7-expressed CHO cell membrane fraction
Procedure: The peptides shown in TABLE 3 are those obtained by diluting the stock solution of […] or 10⁻³ M with the assay buffer in 10⁻⁵ M, 10⁻⁶ M, 10⁻⁷ M, 10⁻⁸ M, 10⁻⁹ M, 10⁻¹⁰ M and 10⁻¹¹ M. As NBS, hGPR7L-23 was prepared in a final concentration of 10⁻⁵ M. The sample solution and NSB prepared were dispensed on a polypropylene-made 96-well plate, the assay buffer was dispensed thereto to make the total volume 50 μl, and 25 μl of the iodine-labeled product dilution was added thereto. After agitation, 25 μl of the solution of human GPR7-expressed CHO cell membrane fraction were dispensed thereto and agitated, followed by incubation at room temperature for 1.5 hour. Using a cell harvester for the 96-well plate, the culture medium was adsorbed onto a filter unit, which had previously been wetted with an assay buffer (50 mM Tris-HCl, pH7.5). After washing 5 times with the assay buffer, the filter unit was thoroughly dried. After 50 μl of a liquid scintillator was dispensed thereto, the radioactivity was counted on a Top Count (Packard) and the data was analyzed in triplet (FIG. 33).

human GPR8, sequence (P48146 whole entry): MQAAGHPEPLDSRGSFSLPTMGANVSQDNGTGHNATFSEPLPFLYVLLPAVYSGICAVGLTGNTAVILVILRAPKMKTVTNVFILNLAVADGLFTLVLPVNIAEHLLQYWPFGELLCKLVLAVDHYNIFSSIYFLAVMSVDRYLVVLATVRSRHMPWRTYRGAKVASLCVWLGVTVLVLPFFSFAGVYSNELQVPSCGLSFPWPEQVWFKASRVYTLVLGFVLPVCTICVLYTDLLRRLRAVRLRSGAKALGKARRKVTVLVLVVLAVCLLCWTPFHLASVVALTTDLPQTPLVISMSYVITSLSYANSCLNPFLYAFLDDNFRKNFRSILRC

Row | Binder | IC50 of intracellular cAMP production suppression (cAMP production inhibition rate) [1] | IC50 of intracellular cAMP production suppression (cAMP production inhibition rate) [2] | IC50 of intracellular cAMP production suppression (cAMP production inhibition rate) [3] | IC50 of intracellular cAMP production suppression (cAMP production inhibition rate) [4] | IC50 of intracellular cAMP production suppression (cAMP production inhibition rate) [5] | IC50 [6]
1 | [dTrp(6-Br)]YKPAAGHSSYSVGRAAGLLSGLRRSPYA [DTrp(6Br)1-human GPR7L(29)] | 106 nM | 770 nM | 360 nM | 424 nM | 49 nM | 13 nM
2 | [dTrp(6-Br)]YKPTAGQGYYSVGRAAGLLSGFHRSPYA [DTrp(6Br)1-bovine GPR7L(29)] | 35 nM | 198 nM | 77 nM | 34 nM | 2.5 nM | 6.1 nM
3 | [Trp(6-Br)]YKPTAGQGYYSVGRAAGLLSGFHRSPYA [LTrp(6Br)1-bovine GPR7L(29)] | 0.58 nM | 9.7 nM | 1.9 nM | 4 nM | 0.21 nM | 0.34 nM
4 | [Trp(6-Br)]YKPAAGHSSYSVGRAAGLLSGLRRSPYA [LTrp(6Br)1-human GPR7L(29)] | 0.44 nM | 32 nM | 1.8 nM | 51 nM | 0.47 nM | 0.32 nM
5 | WYKPAAGHSSYSVGRAAGLLSGL [Trp1-human GPR7L(23)] | 0.58 nM |  |  |  |  | 
6 | WYKPAAGSHHYSVGRAAGLLSSFH (also called rat GPR7 ligand A) [Trp1-rat GPR7L(24)] | 0.31 nM | 2.8 nM | 0.51 nM | 3.5 nM | 0.18 nM | 0.3 nM
7 | WYKPAAGSHHYSVGRAAGLLSSFHRFPST (also called rat GPR7 ligand B) [Trp1-rat GPR7L(29)] | 0.86 nM | 8.8 nM | 1.2 nM | 14 nM | 0.3 nM | 0.34 nM
8 | B1 | 0.43 nM | 8.1 nM | 1.2 nM | 5.4 nM | 0.25 nM | 0.31 nM
